For orientation: Kd means the free concentration of one partner at which half of the binding sites on the other are occupied at equilibrium, for simple one-to-one binding. The term kon denotes the rate constant with which the complex forms. Usually koff stands for a measure of how fast the partners let go of each other.

In assay [1] the target is T1, Guinea pig NOTUM (guinea pig, UniProt Q6P988 21-496 (human entry)).
T1 construct: Expressed by transient transfection
T1 chain: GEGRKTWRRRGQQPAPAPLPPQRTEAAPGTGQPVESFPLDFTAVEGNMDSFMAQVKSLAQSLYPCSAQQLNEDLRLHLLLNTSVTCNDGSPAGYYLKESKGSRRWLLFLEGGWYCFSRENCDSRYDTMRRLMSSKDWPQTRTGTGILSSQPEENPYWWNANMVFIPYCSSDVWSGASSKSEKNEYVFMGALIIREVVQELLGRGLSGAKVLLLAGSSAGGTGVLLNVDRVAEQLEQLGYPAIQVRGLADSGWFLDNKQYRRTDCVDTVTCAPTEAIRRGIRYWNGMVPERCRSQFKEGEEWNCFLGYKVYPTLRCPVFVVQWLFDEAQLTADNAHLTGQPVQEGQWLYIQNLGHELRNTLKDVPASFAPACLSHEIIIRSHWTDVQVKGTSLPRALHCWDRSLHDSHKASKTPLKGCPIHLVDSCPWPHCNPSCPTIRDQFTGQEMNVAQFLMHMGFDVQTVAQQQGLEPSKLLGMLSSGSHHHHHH
The assay can be described thus: ELISA.

In assay [2] the target is T2, Rhesus monkey NOTUM (rhesus monkey, UniProt Q6P988 20-491 (human entry)).
T2 construct: Produced by transient transfection; also called Rhesus macaque NOTUM; rhesus NOTUM
T2 chain: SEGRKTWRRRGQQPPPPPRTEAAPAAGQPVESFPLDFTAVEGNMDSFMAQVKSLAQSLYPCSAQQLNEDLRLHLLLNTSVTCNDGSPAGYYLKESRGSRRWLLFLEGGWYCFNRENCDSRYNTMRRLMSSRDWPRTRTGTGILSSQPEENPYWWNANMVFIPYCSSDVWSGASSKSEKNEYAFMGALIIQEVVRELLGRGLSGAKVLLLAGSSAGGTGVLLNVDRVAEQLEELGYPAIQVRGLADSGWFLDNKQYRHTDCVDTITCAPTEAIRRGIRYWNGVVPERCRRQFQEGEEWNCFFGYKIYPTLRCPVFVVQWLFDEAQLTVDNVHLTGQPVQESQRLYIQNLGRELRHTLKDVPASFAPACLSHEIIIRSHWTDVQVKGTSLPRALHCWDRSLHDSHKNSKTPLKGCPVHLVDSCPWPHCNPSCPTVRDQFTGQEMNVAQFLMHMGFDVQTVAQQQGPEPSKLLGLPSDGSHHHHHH
The assay can be described thus: ELISA.

For assay [3], the target named is T3, Human NOTUM (human, UniProt Q6P988 20-496).
T3 construct: also called human notum pectinacetylesterase; recombinant human NOTUM
T3 sequence: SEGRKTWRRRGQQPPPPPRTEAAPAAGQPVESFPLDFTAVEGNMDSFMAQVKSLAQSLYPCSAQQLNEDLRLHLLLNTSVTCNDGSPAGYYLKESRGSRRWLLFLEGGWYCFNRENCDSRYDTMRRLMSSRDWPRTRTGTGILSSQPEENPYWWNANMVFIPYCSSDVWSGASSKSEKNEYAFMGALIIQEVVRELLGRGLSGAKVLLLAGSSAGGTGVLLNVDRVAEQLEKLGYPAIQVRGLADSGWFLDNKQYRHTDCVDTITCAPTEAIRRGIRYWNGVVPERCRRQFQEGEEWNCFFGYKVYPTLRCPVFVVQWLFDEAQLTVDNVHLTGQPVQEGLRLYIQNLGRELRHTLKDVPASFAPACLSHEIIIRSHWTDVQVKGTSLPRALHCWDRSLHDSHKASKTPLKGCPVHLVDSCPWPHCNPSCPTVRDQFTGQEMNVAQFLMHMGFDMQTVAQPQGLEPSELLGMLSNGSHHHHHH
The assay can be described thus: Biacore 3000. As to the method:
(§1) Binding affinities of certain anti-NOTUM MAbs was determined using a Biacore 3000. In order to obtain meaningful affinity values for binding to multimeric […] NOTUM protein, antibody FAb fragments were generated by digestion of whole IgG with the protease Ficin, followed by removal of undigested IgG and Fc fragments by protein A affinity chromatography. Affinity values for binding of FAbs and whole IgG to human NOTUM corresponded, and their affinity values were in the single to low double digit nM range, as shown in Table 3.
(In general: In SPR one partner is held on a chip, and binding of the other changes the refractive index at the surface.)

In assay [4] the target is T3, Human NOTUM. The assay can be described thus: cell-based or functional assay.
Assay [5] concerns the target T3, Human NOTUM. As to the kind of experiment: cell-based or functional assay. The source holds these as a separate data set.
Assay [6] has as its target T4, Mouse NOTUM (mouse, UniProt Q8R116 20-503).
T4 sequence: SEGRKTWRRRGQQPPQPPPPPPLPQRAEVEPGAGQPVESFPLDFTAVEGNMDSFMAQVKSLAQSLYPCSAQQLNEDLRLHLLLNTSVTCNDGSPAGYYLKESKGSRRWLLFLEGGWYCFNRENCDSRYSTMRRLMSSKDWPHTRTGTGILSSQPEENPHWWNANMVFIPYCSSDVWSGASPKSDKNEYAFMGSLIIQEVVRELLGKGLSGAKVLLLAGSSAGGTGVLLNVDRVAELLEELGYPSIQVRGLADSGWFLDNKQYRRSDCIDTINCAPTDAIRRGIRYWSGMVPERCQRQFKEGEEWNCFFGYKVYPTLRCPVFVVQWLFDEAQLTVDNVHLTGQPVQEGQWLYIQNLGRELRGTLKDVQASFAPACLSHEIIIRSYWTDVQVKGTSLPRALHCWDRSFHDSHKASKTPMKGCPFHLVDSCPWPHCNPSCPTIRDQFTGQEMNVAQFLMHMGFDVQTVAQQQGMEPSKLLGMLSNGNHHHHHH
The assay can be described thus: cell-based or functional assay.

Assay [7] has as its target T3, Human NOTUM. As to the kind of experiment: cell-based or functional assay. The source holds these as a separate data set.
Assay [8] concerns the target T4, Mouse NOTUM. As to the kind of experiment: cell-based or functional assay. The source holds these as a separate data set.
Assay [9] addresses T4, Mouse NOTUM. The assay can be described thus: Biacore 3000. As to the method: as §1
For assay [10], the target named is T3, Human NOTUM. The assay can be described thus: ELISA (column 'Human NOTUM binding').
In assay [11] the target is T5, Human NOTUM D137A/R139A (human, UniProt Q6P988 20-496).
T5 construct: Alanine mutant, expressed and secreted after transient transfection; little to no activity in the OPTS assay
T5 sequence: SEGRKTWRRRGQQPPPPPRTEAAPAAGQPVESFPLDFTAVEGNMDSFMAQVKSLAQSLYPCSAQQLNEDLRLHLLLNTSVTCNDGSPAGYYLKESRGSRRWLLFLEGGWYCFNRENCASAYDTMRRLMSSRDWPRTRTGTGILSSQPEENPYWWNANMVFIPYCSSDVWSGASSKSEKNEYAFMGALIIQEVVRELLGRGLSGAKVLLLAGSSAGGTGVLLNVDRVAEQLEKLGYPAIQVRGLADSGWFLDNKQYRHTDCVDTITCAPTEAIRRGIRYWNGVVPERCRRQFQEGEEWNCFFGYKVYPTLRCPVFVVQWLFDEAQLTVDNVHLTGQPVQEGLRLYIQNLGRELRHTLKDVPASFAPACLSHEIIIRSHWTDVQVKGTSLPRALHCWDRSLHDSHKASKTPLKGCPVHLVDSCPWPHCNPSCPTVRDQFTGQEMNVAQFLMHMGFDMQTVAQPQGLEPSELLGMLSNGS
The assay can be described thus: ELISA. For orientation: In an ELISA, binding on a coated surface is turned into a signal by an enzyme label.

Assay [12] concerns the target T6, Human NOTUM R144A/R145A (human, UniProt Q6P988 20-496).
T6 construct: Alanine mutant, expressed and secreted after transient transfection
T6 sequence: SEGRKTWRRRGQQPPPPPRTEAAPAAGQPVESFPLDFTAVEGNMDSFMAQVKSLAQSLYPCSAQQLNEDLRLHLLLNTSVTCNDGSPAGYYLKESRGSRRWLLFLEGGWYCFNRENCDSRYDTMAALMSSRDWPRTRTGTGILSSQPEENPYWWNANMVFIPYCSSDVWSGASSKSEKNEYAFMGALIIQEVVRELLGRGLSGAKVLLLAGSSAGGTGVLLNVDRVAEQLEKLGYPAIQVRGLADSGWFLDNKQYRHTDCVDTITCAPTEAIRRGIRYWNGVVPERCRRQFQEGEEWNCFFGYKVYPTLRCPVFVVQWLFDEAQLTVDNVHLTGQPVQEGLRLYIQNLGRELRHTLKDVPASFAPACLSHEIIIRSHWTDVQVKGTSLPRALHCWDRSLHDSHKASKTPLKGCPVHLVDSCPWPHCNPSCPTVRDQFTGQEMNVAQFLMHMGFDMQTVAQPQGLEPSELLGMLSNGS
The assay can be described thus: ELISA.

Where two headings read alike, the source gives them in different places. Some results are limits rather than exact numbers.

B1: MAb 2.1029 (antibody, IgG2a, V domains shown)
VH: QVQLKESGPGLVAPSQSLSITCTVSGFSLTSYGVHWVRQPPGKGLEWLGVIWAGGSTNYNSALMSRLSISKDNSKSQVFLKMNSLQTDDTAIYFCARDGDYGTIYAMDYWGQGTSVTVSS
VL: DIQMTQTTSSLSASLGDRVTISCRASQDISNYLNWYQQKPDGTVKLLIYYTSRLHSGVPSRFTGSGSGTDYSLTISNLEQEDIATYFCQQGKTLPRTFGGGTMLEIKR
notes: Mouse monoclonal antibody from Campaign 2, IgG2a
Turning to B1, the binding result in assay [1] is “binds”. Further, the binding result in assay [2] is “binds”. Moreover, in assay [3], the Kd came to 5.99 nM and the on-rate constant (kon) came out at 151000 M⁻¹ s⁻¹. For the same molecule, the “IC50, neutralization in the Wnt signaling assay” value in assay [4] came to 14 nM. Also, in assay [5], the “OPTS IC50 (nM; human NOTUM)” value came to 5.77 nM and the “Wnt signaling IC50 (nM; human NOTUM)” value is 14 nM. Also, in [6], the “OPTS IC50 (nM; mouse NOTUM)” value was found to be 29.2 nM.

B2: MAb 1.731 (antibody, IgG1, V domains shown)
VH: EVQLQQSGPELVKPGASVKVSCKASGYPFTDYFIHWVKQTHGKSLEWIGYFFPKNGANGYNQKFEGKVTLTVDKSSSTAYMELRSLTSEDSAVYYCARRYGNYYSMDYWGQGTSVTVSS
VL: SFVMTQTPKFLLVSAGDRVTITCKASQSVGDDVAWYQQKPGQSPTLLIYRVSNRYTGVPDRFTGSGYGTDFTFTINTVQAEDLAVYFCQQDYSSPYTFGGGTQLEVKR
As to B2, in assay [7], the “OPTS IC50 (nM; human NOTUM)” value is over 167 nM and the “Wnt signaling IC50 (nM; human NOTUM)” value turned out to be 15.5 nM. Besides, in [8], the “OPTS IC50 (nM; mouse NOTUM)” value stood at 197 nM.

B3: 1.802 Fab (Fab, V domains shown)
VH: EVQLVESGGGLVKPGGSLKLSCAASGFTFSDYGMHWFRQAPEKGLEWVAYISSGSRTVYYADTVKGRFTISRDNAKNTLSLQMTSLRSEDTAMYYCARKHYNGGYFDVWGTGTTVTVSS
VL: DIVLTQSPASLAVSLGQRATISCRASKIVSTSGYSYMHWYQQKPGQPPKLLIYLASNLESGVPARFSGSGSGTDFTLNIHPVEEEDAATYYCQHSRELPPTFGSGTKLEIKR
notes: Fab made by digestion of whole IgG (mouse IgG1) with ficin
B3: in [3], the affinity, expressed as Kd, was 0.91 nM and the kon came to 899000 M⁻¹ s⁻¹. Besides, in assay [9], the binding result is given as “no binding”.

B4: MAb 2.55 (antibody, IgG2a, V domains shown)
VH: EVQLQQSGTVLARPGALVKMSCKASGYTFTSYWMHWVKQRPGQGLEWIGAIYPGKSDTRYNQKFKDKAKLTAVTSTSTAYMDLSSLTDEDSAVYYCSRRYGNFYAMDYWGQGTSVTVSS
VL: SIVMTQTPKFLLVSAGDRVTMTCKASQSVSNDVAWYQQKPGQSPELLIYYASDRYTGVPDRFTGSGYGTDFTLTISTVQAEDLAVYFCQQDYSSPYTFGGGTKLETKR
notes: as for B1
Consider B4, for which the “OPTS IC50 (nM; mouse NOTUM)” value in assay [6] turned out to be 26.1 nM. The binding result in [10] is “binds”.

B5: MAb 2.78 (antibody, V domains shown)
VH: DVQLVESGGGLVQPGGSRKLSCAASGFTFSSFGMHWVRQAPEKGLEWVAYITSGSGAIYYADTVRGRFTISRDTPKNTLFLQMTSLRSEDTAMYYCARSADGLDYWGQGTSVTVSS
VL: DIQMTQSPASLYVSVGETVTITCRASENIYSNLAWYQQKQGKSPQLLVYGATNLADGVPSRFSGSGSGTQYSLKINSLKSEDFGSYYCQHFWGTPFTFGSGTKLEIKR
notes: Mouse monoclonal antibody from Campaign 2 (raised against mouse NOTUM), IgG2b
On to B5, for which the binding result in [11] is given as “no binding”; in assay [12], “no binding”; in [1] it was “binds”; in [2], “binds”. For the same molecule, binding in assay [3] was characterised by a dissociation constant (Kd) of 17.6 nM. The kon in [3] was found to be 47900 M⁻¹ s⁻¹. In addition, the “OPTS IC50 (nM; human NOTUM)” value in assay [5] turned out to be 15.5 nM. Moreover, in assay [5], the “Wnt signaling IC50 (nM; human NOTUM)” value was found to be 45.9 nM. In assay [6], the “OPTS IC50 (nM; mouse NOTUM)” value was 35.6 nM. The “Wnt signaling IC50 (nM; mouse NOTUM)” value in assay [6] is 3.75 nM.

B6: 2.78 Fab (Fab, V domains shown)
VH: DVQLVESGGGLVQPGGSRKLSCAASGFTFSSFGMHWVRQAPEKGLEWVAYITSGSGAIYYADTVRGRFTISRDTPKNTLFLQMTSLRSEDTAMYYCARSADGLDYWGQGTSVTVSS
VL: DIQMTQSPASLYVSVGETVTITCRASENIYSNLAWYQQKQGKSPQLLVYGATNLADGVPSRFSGSGSGTQYSLKINSLKSEDFGSYYCQHFWGTPFTFGSGTKLEIKR
notes: Fab made by digestion of whole IgG (mouse IgG2b) with ficin
In assay [3], B6 gave a Kd of 15.4 nM, an off-rate constant (koff) of 0.00136 s⁻¹ and a kon of 87700 M⁻¹ s⁻¹. In assay [9], this molecule registered a Kd of 4.99 nM and a kon of 39100 M⁻¹ s⁻¹.

The values are drawn from patent publication US20130302346A1 (LEXICON PHARMACEUTICALS, published 2013).
